Measured values: US20150023943, “REF Nuclease for Site-Specific REF-Mediated DNA Cleavage” (Wisconsin Alumni Research Foundation, published 2015)

T1: P1 Ref (wild type) (Bacteriophage P1, UniProt P35926 SEQ:1-186)
T1 sequence: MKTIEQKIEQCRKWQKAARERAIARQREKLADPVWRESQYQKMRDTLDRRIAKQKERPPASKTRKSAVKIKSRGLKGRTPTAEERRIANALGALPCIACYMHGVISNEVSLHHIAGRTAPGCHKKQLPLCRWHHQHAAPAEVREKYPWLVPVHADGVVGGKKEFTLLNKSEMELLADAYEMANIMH

T2: φW39 ΔN74 Ref (Bacteriophage phi W39)
T2 chain: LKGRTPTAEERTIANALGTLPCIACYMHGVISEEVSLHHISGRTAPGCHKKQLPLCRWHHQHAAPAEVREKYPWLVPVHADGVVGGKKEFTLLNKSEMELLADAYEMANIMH

T3: P1 ΔN76 Ref (Bacteriophage P1, UniProt P35926 SEQ:77-186)
T3 chain: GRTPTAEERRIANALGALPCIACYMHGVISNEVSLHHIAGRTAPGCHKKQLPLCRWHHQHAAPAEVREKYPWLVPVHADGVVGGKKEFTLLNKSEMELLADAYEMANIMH

T4: φW39 ΔN21 Ref (Bacteriophage phi W39)
T4 chain: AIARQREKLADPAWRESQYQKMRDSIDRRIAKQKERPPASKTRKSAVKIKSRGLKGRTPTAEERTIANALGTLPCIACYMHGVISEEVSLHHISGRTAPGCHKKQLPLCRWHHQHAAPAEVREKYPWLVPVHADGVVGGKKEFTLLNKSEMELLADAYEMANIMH

T5: φW39 ΔN47 Ref (Bacteriophage phi W39)
T5 chain: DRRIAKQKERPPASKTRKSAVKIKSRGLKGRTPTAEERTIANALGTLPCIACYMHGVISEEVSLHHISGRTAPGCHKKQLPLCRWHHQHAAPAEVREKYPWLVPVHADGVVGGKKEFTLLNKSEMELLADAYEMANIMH

B1: AJM25 71mer ssDNA (ssDNA)
DNA: CAGAAGTAAGTTGGCCGCAGTGTTATCACTCATGGTTATGGCAGCACTGCATAATTCTCTTACTGTCATGC
B2: AJM25/AJG52 71 bp dsDNA (dsDNA)
DNA 1: B1 DNA
DNA 2: GCATGACAGTAAGAGAATTATGCAGTGCTGCCATAACCATGAGTGATAACACTGCGGCCAACTTACTTCTG

Experiments:
[1] = target: T1, P1 Ref (wild type); experiment: FP; apparent Kd; 14±1; 25 mM Tris-acetate pH 8.5, 15 mM Mg acetate, 3 mM K glutamate, 25 C; conditions: label: 5'-6FAM
Protocol: (§1) Fluorescence polarization DNA binding assay—Ref (or a variant) at 0.5-10,000 nM was incubated with 2 nM AJM25 71mer ssDNA or AJM25 annealed with AJG52 71mer to make dsDNA substrate in 25 mM Tris-acetate (pH 8.5), 3 mM potassium glutamate, 15 mM magnesium acetate, and 5% w/v glycerol at room temperature for 15 minutes. Fluorescence anisotropy (FA) was measured at 25° C., using a Tecan Infinite M1000 instrument with 470-nm excitation and 535-nm emission wavelengths for at least three replicates; the average FA values were plotted with one standard deviation of the mean shown as error. Prism software was used to convert FA values to the fraction of DNA bound and apparent dissociation constants were the Ref concentration (or variant) needed for 50% binding saturation.
(§2) Fluorescence polarization assays with labeled DNA substrates (ssDNA and dsDNA) were carried out to determine dissociation constants of each of the N-terminal domain truncations. […] For the P1 ΔN76 Ref protein, this is consistent with EMSA data from the earlier study (Gruenig et al 2011, supra). […] This indicates the presence of a critical sequence domain between residues 47-74.

[2] = target: T2, φW39 ΔN74 Ref; experiment: FP; no binding detected up to 10,000 nM; conditions: tags: expressed from pET21A with NdeI start Met; label: 5'-6FAM
Protocol: as §1, §2

[3] = target: T3, P1 ΔN76 Ref; experiment: FP; no binding detected up to 10,000 nM; consistent with earlier EMSA; conditions: label: 5'-6FAM
Protocol: as §1, §2

[4] = target: T4, φW39 ΔN21 Ref; experiment: FP; apparent Kd; 119±9; 15 mM Mg acetate, pH 8.5, 25 C; conditions: tags: expressed from pET21A with NdeI start Met; label: 5'-6FAM
Protocol: as §1, §2

[5] = target: T5, φW39 ΔN47 Ref; experiment: FP; apparent Kd; 113±7; 15 mM Mg acetate, pH 8.5, 25 C; conditions: tags: expressed from pET21A with NdeI start Met; label: 5'-6FAM
Protocol: as §1, §2

[6] = target: T3, P1 ΔN76 Ref; experiment: FP; no observable binding; conditions: label: 5'-6FAM on AJM25
Protocol: (§3) The truncations were also assayed with a 71mer dsDNA substrate made by annealing the labeled 71mer oligonucleotide (AJM25) with the complementary 71mer oligonucleotide (AJG52). […] As the second motif and part of the third motif were removed in the φW39 ΔN59 and φW39 ΔN66, dsDNA binding was further reduced. As with the ssDNA, φW39 ΔN74 and P1 ΔN76 Ref had no observable dsDNA binding. Overall we provide evidence that the N-terminal region of Ref is necessary for DNA binding, and the putative charge motifs may contribute collectively to that function.
(§4) Ref proteins at 0.5-10,000 nM were incubated with 2 nM AJM25 71mer ssDNA or AJM25 annealed with AJG52 71mer to make a linear 71 bp dsDNA substrate in 25 mM Tris-acetate (pH 8.5), 3 mM potassium glutamate, 15 mM magnesium acetate, and 5% w/v glycerol at room temperature for 15 minutes. Fluorescence anisotropy (FA) was measured at 25° C., using a Tecan Infinite M1000 instrument with 470-nm excitation and 535-nm emission wavelengths for at least three replicates. The average FA values were plotted with one standard deviation of the mean shown as error. Prism software was used to convert FA values to the percent of DNA bound and apparent dissociation constants were determined using one-site, specific binding with Hill coefficient.

[7] = target: T2, φW39 ΔN74 Ref; experiment: FP; no observable binding; conditions: tags: expressed from pET21A with NdeI start Met; label: 5'-6FAM on AJM25
Protocol: as §3, §4

[8] = target: T1, P1 Ref (wild type); experiment: FP; apparent Kd; 14±1; cooperative; 15 mM Mg acetate, pH 8.5, 25 C; conditions: label: 5'-6FAM on AJM25
Protocol: as §1
(§5) The truncations were also assayed with 71mer dsDNA substrate. The dsDNA substrate was made by annealing the labeled 71mer oligonucleotide (AJM25) with the complementary 71mer oligonucleotide (AJG52). […] Instead, an increase in KD is seen as more of the N-terminus is truncated (FIG. 2B, 2C). Also, there is an apparent cooperativity when binding to dsDNA, and this cooperativity decreases as the N-terminus is truncated (FIG. 2C). This provides evidence that the N-terminal region of Ref is necessary for DNA binding. Specifically, the amino acids between position 47 and 74 are particularly important.

[9] = target: T4, φW39 ΔN21 Ref; experiment: FP; apparent Kd; 56±3; 15 mM Mg acetate, pH 8.5, 25 C; conditions: tags: expressed from pET21A with NdeI start Met; label: 5'-6FAM on AJM25
Protocol: as §1, §5

[10] = target: T5, φW39 ΔN47 Ref; experiment: FP; apparent Kd; 143±12; 15 mM Mg acetate, pH 8.5, 25 C; conditions: tags: expressed from pET21A with NdeI start Met; label: 5'-6FAM on AJM25
Protocol: as §1, §5

| Binder | Kd [1] | binding result [2] | binding result [3] | Kd [4] | Kd [5] | binding result [6] | binding result [7] | Kd [8] | Kd [9] | Kd [10] |
| --- | --- | --- | --- | --- | --- | --- | --- | --- | --- | --- |
| B1 | 14.4 nM | no binding | no binding | 119 nM | 113 nM | – | – | – | – | – |
| B2 | – | – | – | – | – | no binding | no binding | 13.5 nM | 56.1 nM | 142 nM |
